Where a chain is given by its changes, count along the chain named. Numbers in names are those of the source.

The target in assay [1] is Recombinant Human DLL4 (R&D Systems Cat#1506-D4/CF) (human) (UniProt Q9NR61). Description: ECL (MSD) binding assay, immobilised DLL4.
For assay [2], the target named is Recombinant Human DLL4 (delta-like protein 4) (human) (UniProt Q9NR61). Description: ELISA, DLL4 coated on plate, Fab at 100 nM (2-fold dilution series), absorbance at 450 nm. On the technique in general: ELISA stands for enzyme-linked immunosorbent assay.
The target is the same in assay [3]. The experiment in a line: ELISA, DLL4 coated on plate, Fab at 25 nM (2-fold dilution series), absorbance at 450 nm.
For assay [4] the target is unchanged. Description: ELISA, DLL4 coated on plate, Fab at 12.5 nM (2-fold dilution series), absorbance at 450 nm.
Assay [5] shares this target. The experiment in a line: ELISA, DLL4 coated on plate, Fab at 50 nM (2-fold dilution series), absorbance at 450 nm.
For assay [6], the target named is human Delta-like ligand 4 (DLL4), full-length, expressed on CHO cells (human) (UniProt Q9NR61). The experiment in a line: cell-based or functional assay.

B1: Fab VH5-51_IGHD5-18*01>3_IGHJ4*01 G100K/G104T S28R & V3-4_IGLJ1*01 M94R/S96M (L:RM) (Fab, V domains shown)
VH: EVQLVQSGAEVKKPGESLKISCKGSGYRFTSYWIGWVRQMPGKGLEWMGIIYPGDSDTRYSPSFQGQVTISADKSISTAYLQWSSLKASDTAMYYCARRKYSYTYDYFDYWGQGTLVTVSS
VL: QTVVTQEPSFSVSPGGTVTLTCGLSSGSVSTSYYPSWYQQTPGQAPRTLIYSTNTRSSGVPDRFSGSILGNKAALTITGAQADDESDYYCVLYRGMGISYVFGTGTKVTVL
With B1, the ECL signal in assay [1] was 530.

B2: Fab VH5-51_IGHD5-18*01>3_IGHJ4*01 G100K/G104T G24L/S28R/G35V & V3-4_IGLJ1*01 M94R/S96M (L:RM) (Fab, V domains shown)
VH: B1 VH with G24L, G35V
VL: B1 VL
In the case of B2, in assay [1], the ECL signal is 889.

B3: Fab VH5-51_IGHD5-18*01>3_IGHJ4*01 G100K/G104T G24A/S28R/G35V & V3-4_IGLJ1*01 M94R/S96M (L:RM) (Fab, V domains shown)
VH: B1 VH with G24A, G35V
VL: B1 VL
Turning to B3, in assay [1], the ECL signal worked out at 1200.

B4: Fab VH5-51_IGHD5-18*01>3_IGHJ4*01 G100K/G104T G24A/S28R/G35V Y107F & V3-4_IGLJ1*01 (wildtype) (Fab, V domains shown)
VH: B1 VH with G24T, G35V, Y107F
VL: B1 VL with R94M, M96S
Consider B4, for which the ELISA signal was 0.28 in assay [2], 0.2 in assay [3], 0.21 in assay [4] and 0.24 in assay [5].

B5: Fab VH5-51_IGHD5-18*01>3_IGHJ4*01 G100K/G104T G24T/S28R/G35V Y105N & V3-4_IGLJ1*01 (wildtype) (Fab, V domains shown)
VH: B1 VH with G24T, G35V, Y105N
VL: B1 VL with R94M, M96S
For B5, the ELISA signal was found to be 0.25 in assay [2], 0.19 in assay [3], 0.21 in assay [4] and 0.18 in assay [5].

B6: Fab VH5-51_IGHD5-18*01>3_IGHJ4*01 G100K/G104T G24L/S28R/G35V D109Q & V3-4_IGLJ1*01 (wildtype) (Fab, V domains shown)
VH: B1 VH with G24T, G35V, D109Q
VL: B1 VL with R94M, M96S
Regarding B6, the ELISA signal was 0.3 in assay [2], 0.22 in assay [3], 0.24 in assay [4] and 0.25 in assay [5].

B7: Fab VH5-51_IGHD5-18*01>3_IGHJ4*01 G100K/G104T G24L/S28R/G35V Y105H & V3-4_IGLJ1*01 (wildtype) (Fab, V domains shown)
VH: B1 VH with G24T, G35V, Y105H
VL: B1 VL with R94M, M96S
Turning to B7, the ELISA signal in assay [2] came out at 0.23; in assay [3], 0.19; in assay [4], 0.21; in assay [5], 0.2.

B8: Fab VH6-1_IGHD6-13*01_IGHJ4*01 and V2-17_IGLJ2*01 (Fab, V domains shown)
VH: QVQLQQSGPGLVKPSQTLSLTCAISGDSVSSNSAAWNWIRQSPSRGLEWLGRTYYRSKWYNDYAVSVKSRITINPDTSKNQFSLQLNSVTPEDTAVYYCAREGYSSSWYDYFDYWGQGTLVTVSS
VL: SYELTQPPSVSVSPGQTARITCSGDALPKQYAYWYQQKPGQAPVLVIYKDSERPSGIPERFSGSSSGTTVTLTISGVQAEDEADYYCQSADSSGTYPVVFGGGTKLTVL
Turning to B8, in assay [6], the Notch1 luciferase reporter luminescence, T98G reporter cells + CHO-DLL4, 0.8 nM Fab, replicate 1 came out at 4480; the Notch1 luciferase reporter luminescence, T98G reporter cells + CHO-DLL4, 0.8 nM Fab, replicate 2 was 4540; the Notch1 luciferase reporter luminescence, T98G reporter cells + CHO-DLL4, 0.8 nM Fab, replicate 3 is 3910; the Notch1 luciferase reporter luminescence, T98G reporter cells + CHO-DLL4, 0.8 nM Fab, replicate 4 worked out at 4220. In addition, in assay [6], the Notch1 luciferase reporter luminescence, T98G reporter cells + CHO-DLL4, 4 nM Fab, replicate 1 is 4810; the Notch1 luciferase reporter luminescence, T98G reporter cells + CHO-DLL4, 4 nM Fab, replicate 2 was 4920; the Notch1 luciferase reporter luminescence, T98G reporter cells + CHO-DLL4, 4 nM Fab, replicate 3 is 4190; the Notch1 luciferase reporter luminescence, T98G reporter cells + CHO-DLL4, 4 nM Fab, replicate 4 came to 4520. Besides, in assay [6], the Notch1 luciferase reporter luminescence, T98G reporter cells + CHO-DLL4, 20 nM Fab, replicate 1 is 5400; the Notch1 luciferase reporter luminescence, T98G reporter cells + CHO-DLL4, 20 nM Fab, replicate 2 worked out at 4990; the Notch1 luciferase reporter luminescence, T98G reporter cells + CHO-DLL4, 20 nM Fab, replicate 3 was found to be 4320; the Notch1 luciferase reporter luminescence, T98G reporter cells + CHO-DLL4, 20 nM Fab, replicate 4 is 4550. Further, in assay [6], the Notch1 luciferase reporter luminescence, T98G reporter cells + CHO-DLL4, 100 nM Fab, replicate 1 was 4820; the Notch1 luciferase reporter luminescence, T98G reporter cells + CHO-DLL4, 100 nM Fab, replicate 2 came out at 4810; the Notch1 luciferase reporter luminescence, T98G reporter cells + CHO-DLL4, 100 nM Fab, replicate 3 was found to be 4030; the Notch1 luciferase reporter luminescence, T98G reporter cells + CHO-DLL4, 100 nM Fab, replicate 4 came to 4470.

Values taken from patent US20120316071A1.
